Test [1] addresses GST-LE, singly phosphorylated (reacted with CK2, 1 added phosphate) (encephalomyocarditis virus (EMCV)). Nature of the test: pull-down.
The target of test [2] is GST-LE, dual phosphorylated (CK2 plus Syk, 2 added phosphates) (encephalomyocarditis virus (EMCV)). Put plainly: pull-down.
Test [3] shares this target. Nature of the test: SEC.

Chain of GST-LE, dual phosphorylated (CK2 plus Syk, 2 added phosphates) (encephalomyocarditis virus (EMCV)) (P03304 1-67 limits assumed): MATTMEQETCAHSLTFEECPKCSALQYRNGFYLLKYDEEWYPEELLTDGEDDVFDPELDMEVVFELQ
Chain of GST-LE, singly phosphorylated (reacted with CK2, 1 added phosphate) (encephalomyocarditis virus (EMCV)) (P03304 1-67 limits assumed): as above

For orientation: stoichiometry N means the number of molecules, sites or subunits per partner or assembly. In the case of “rCrm1 (recombinant His-tagged murine Crm1) (from UniProt Q6P5F9 1-1071) (natural protein)”, the percent stronger rCrm1 signal per unit of GST(-LE) than without phosphate in test [1] and in test [2] was 50 to 70% throughout. In addition, the stoichiometry N in test [3] was found to be 1.

Source of the values: paper PMC4679524.
